Data published in article PMC2172285.

Target: cortactin, endogenous in hE-CHO cells (hamster (endogenous in CHO))
Test: co-IP

“human E-cadherin stably expressed in CHO cells (hE-CHO cells) (from UniProt P12830 155-882) (receptor)” gave a percent of total cellular E-cadherin found in the cortactin immunoprecipitates of 1 to 2%.
